Assay results published in article PMC11321386 (Blood advances, 2024).

Molecular target: GPVI-Fc dimer (UniProt Q9HCN6)
Test: ELISA

- binding result: binds
B1: nanobody 2 (Nb2) (VHH)
VHH: QVQLQESGGGLVQPGGSLRLSCAAAGFTFDYYAIAWFRQAPGKEREGVSCISSSDGTTYYADSVKGRFTISKDNAKNTMYLQMNSLKPEDTAVYYCATSPLYSTNDRCISEDYDYWGQGTQVTVSS
